Measurements: publication PMC10723142, “Structures of the P. aeruginosa FleQ-FleN master regulators reveal large-scale conformational switching in motility and biofilm control” (Proceedings of the National Academy of Sciences of the …, 2023)

B1: FleQ receiver and ATPase domain tandem (FleQ^REC-AAA+) (domain or fragment)
chain: not shown
notes: FleQ, P. aeruginosa PAO1, residues 1-394 (REC and AAA+ domains); untagged, from pRSFDuet1*; also called FleQ^1-394; HTH-truncated FleQ; source: E. coli BL21 Star (DE3), coexpressed with His6-FleN variants; in lysate (IMAC co-purification) and purified as complex (IMAC, SEC) for cryo-EM
B2: full-length untagged FleQ (FleQ^FL) (natural protein)
chain: not shown
notes: FleQ, P. aeruginosa PAO1 (amplified from genomic DNA), residues 1-490 covering the full-length protein; untagged, from pRSFDuet1*; also called FleQ^1-490; wild-type FleQ; source: E. coli BL21 Star (DE3), coexpressed with His6-FleN variants; in lysate (IMAC co-purification) and purified as complex (IMAC, SEC) for cryo-EM
B3: full-length FleN^D48A (His6 tag cleaved) (natural protein)
chain: MKQMGSMHPVQVIAVTGGKGGVGKTNVSVNLALALADLGRRVMLLDAALGLANVDVLLGLTPKRTLADVIEGRCELRDVLLLGPGGVRIVPAASGTQSMVHLSPMQHAGLIQAFSDISDNLDVLVVDTAAGIGDSVVSFVRAAQEVLLVVCDEPTSITDAYALIKLLNRDHGMTRFRVLANMAHSPQEGRNLFAKLTKVTDRFLDVALQYVGVIPYDESVRKAVQKQRAVYEAFPRSKASLAFKAVAQKVDSWPLPANPRGHLEFFVERLVQHPATGSAV
notes: FleN, P. aeruginosa PAO1, full-length with D48A; pProEx-Htb-cloned, tag cleaved by HRV3c protease; source: E. coli BL21 Star (DE3), coexpressed with FleQ^REC-AAA+, purified as complex (IMAC, HRV3c cleavage, SEC); not shown: His6, N-terminal, cleaved
B4: His6-tagged full-length FleN^D48A (tag not cleaved) (natural protein)
chain: B3 chain
notes: pProEx-Htb-cloned; source: E. coli BL21 Star (DE3), coexpressed with FleQ^FL, purified as complex (IMAC, SEC), without tag cleavage; not shown: His6, N-terminal, kept

What was measured:
[1] = target: the molecule itself; assay: cryo-EM structure; c-di-GMP-bound complex, coexpressed and co-purified (IMAC, tag cleavage, SEC with 2 uM c-di-GMP); 200 uM AppCp and 4 uM c-di-GMP before grid preparation
[2] = target: B3; assay: as above; details: both partners purified
[3] = target: B4; assay: cryo-EM structure; c-di-GMP-free complex, coexpressed and co-purified (IMAC, SEC), with AppCp (100 uM); 20 mM HEPES pH 8.0, 250 mM NaCl, 2 mM MgCl2, 2% glycerol; C2 symmetry; details: both partners purified
[4] = target: the molecule itself; assay: as above
[5] = target: B1; assay: cryo-EM structure; c-di-GMP-bound complex, coexpressed and co-purified (IMAC, tag cleavage, SEC with 2 uM c-di-GMP); 200 uM AppCp and 4 uM c-di-GMP before grid preparation; details: both partners purified
[6] = target: B2; assay: cryo-EM structure; c-di-GMP-free complex, coexpressed and co-purified (IMAC, SEC), with AppCp (100 uM); 20 mM HEPES pH 8.0, 250 mM NaCl, 2 mM MgCl2, 2% glycerol; C2 symmetry; details: both partners purified

Binder	binding result [1]	binding result [4]	also measured
B1	binds	–	stoichiometry N [2]: 1.5 FleQ per FleN (3:2)
B2	–	binds	stoichiometry N [3]: 2 FleQ per FleN (4:2)
B3	binds	–	binding result [5]: binds
B4	–	binds	binding result [6]: binds
